Test results reported in the Immune Epitope Database (IEDB).
Values belong to the sequence of their own block, whether it stands above or below them.

What was measured:
HLA-A*02:01 [1] = experiment: IEDB peptide-MHC binding, purified MHC/direct/fluorescence; filed as Kd, often an IC50 or EC50 that approximates it; ≥ and ≤ were set here for values at or beyond the usual limits of such assays; details: source organism: Homo sapiens
HLA-A*69:01 = experiment: as above
HLA-B*07:02 = experiment: as above
HLA-B*15:01 = experiment: as above
HLA-B*40:01 = experiment: as above
HLA-A*02:50 = experiment: IEDB peptide-MHC binding, purified MHC/competitive/fluorescence; filed as Kd, often an IC50 or EC50 that approximates it; ≥ and ≤ were set here for values at or beyond the usual limits of such assays; details: source organism: Homo sapiens
HLA-A*24:03 [2] = experiment: as above; details: source organism: Homo sapiens
HLA-A*25:01 = experiment: as above; details: source organism: Homo sapiens
HLA-A*29:02 = experiment: as above; details: source organism: Homo sapiens
HLA-A*30:01 [3] = experiment: as above; details: source organism: Homo sapiens
HLA-B*44:02 = experiment: as above; details: source organism: Homo sapiens
HLA-B*51:01 = experiment: as above
HLA-B*57:01 [4] = experiment: as above; details: source organism: Homo sapiens
HLA-B*58:01 [5] = experiment: IEDB peptide-MHC binding, purified MHC/competitive/fluorescence; ≥ and ≤ were set here for values at or beyond the usual limits of such assays; details: source organism: Homo sapiens
HLA-B*15:02 = experiment: IEDB peptide-MHC binding, purified MHC/competitive/fluorescence; filed as Kd, often an IC50 or EC50 that approximates it; ≥ and ≤ were set here for values at or beyond the usual limits of such assays; details: source organism: Toxoplasma gondii RH
HLA-A*01:01 = experiment: IEDB peptide-MHC binding, purified MHC/direct/fluorescence; filed as Kd, often an IC50 or EC50 that approximates it; ≥ and ≤ were set here for values at or beyond the usual limits of such assays; details: source organism: Marburg virus - Musoke, Kenya, 1980
HLA-A*03:01 = experiment: as above; details: source organism: Marburg virus - Musoke, Kenya, 1980
HLA-A*26:01 = experiment: as above; details: source organism: Ravn virus - Ravn, Kenya, 1987
HLA-A*30:01 [6] = experiment: as above; details: source organism: Ravn virus - Ravn, Kenya, 1987
HLA-A*31:01 = experiment: as above; details: source organism: Marburg virus - Musoke, Kenya, 1980
HLA-B*15:17 = experiment: as above; details: source organism: Marburg virus - Musoke, Kenya, 1980
HLA-B*18:01 = experiment: as above; details: source organism: Marburg virus - Musoke, Kenya, 1980
HLA-B*27:05 = experiment: as above; details: source organism: Marburg virus - Musoke, Kenya, 1980
HLA-B*38:01 = experiment: as above; details: source organism: Ravn virus - Ravn, Kenya, 1987
HLA-B*46:01 [7] = experiment: as above; details: source organism: Marburg virus - Musoke, Kenya, 1980
HLA-B*48:01 = experiment: as above; details: source organism: Marburg virus - Musoke, Kenya, 1980
HLA-B*57:01 [8] = experiment: as above; details: source organism: Marburg virus - Musoke, Kenya, 1980
HLA-B*58:01 [9] = experiment: as above; details: source organism: Marburg virus - Musoke, Kenya, 1980
HLA-A*02:01 [10] = experiment: IEDB peptide-MHC binding, purified MHC/competitive/fluorescence; filed as Kd, often an IC50 or EC50 that approximates it; ≥ and ≤ were set here for values at or beyond the usual limits of such assays; details: source organism: Orthomarburgvirus marburgense
HLA-A*11:01 = experiment: as above; details: source organism: Orthomarburgvirus marburgense
HLA-B*39:01 = experiment: as above; details: source organism: Orthomarburgvirus marburgense
HLA-B*53:01 = experiment: IEDB peptide-MHC binding, purified MHC/competitive/fluorescence; ≥ and ≤ were set here for values at or beyond the usual limits of such assays; details: source organism: Ornithorhynchus anatinus
HLA-A*24:03 [11] = experiment: IEDB peptide-MHC binding, purified MHC/direct/fluorescence; filed as Kd, often an IC50 or EC50 that approximates it; ≥ and ≤ were set here for values at or beyond the usual limits of such assays; details: source organism: Giardia lamblia ATCC 50803
HLA-C*12:03 = experiment: as above; details: source organism: Giardia lamblia ATCC 50803
HLA-A*32:07 = experiment: IEDB peptide-MHC binding, purified MHC/competitive/fluorescence; filed as Kd, often an IC50 or EC50 that approximates it; ≥ and ≤ were set here for values at or beyond the usual limits of such assays; details: source organism: Giardia lamblia ATCC 50803
HLA-A*32:15 = experiment: as above; details: source organism: Giardia lamblia ATCC 50803
HLA-A*68:23 = experiment: as above; details: source organism: Giardia lamblia ATCC 50803
HLA-B*15:42 = experiment: as above; details: source organism: Giardia lamblia ATCC 50803
HLA-B*45:06 = experiment: as above; details: source organism: Giardia lamblia ATCC 50803
HLA-B*46:01 [12] = experiment: as above; details: source organism: Giardia lamblia ATCC 50803
HLA-B*83:01 = experiment: as above; details: source organism: Giardia lamblia ATCC 50803
HLA-C*04:01 = experiment: as above; details: source organism: Giardia lamblia ATCC 50803
HLA-C*06:02 = experiment: as above; details: source organism: Giardia lamblia ATCC 50803
HLA-C*14:02 = experiment: as above; details: source organism: Giardia lamblia ATCC 50803
[13] = source organism: Marburg virus - Musoke, Kenya, 1980

Kd (HLA-A*02:01 [1]): 5.7 µM
Kd (HLA-A*69:01; source organism: Homo sapiens): 7.17 nM
Kd (HLA-B*07:02; source organism: Homo sapiens): 4710 nM
Kd (HLA-B*15:01; source organism: Homo sapiens): 4.76 µM
Kd (HLA-B*40:01; source organism: Homo sapiens): 13.2 µM
Kd (HLA-A*02:50): ≥ 20 µM
Kd (HLA-A*24:03 [2]): ≥ 20 µM
Kd (HLA-A*25:01): 10.8 nM
Kd (HLA-A*29:02): ≥ 20 µM
Kd (HLA-A*30:01 [3]): ≥ 20 µM
Kd (HLA-B*44:02): ≥ 20 µM
Kd (HLA-B*51:01; source organism: Homo sapiens): ≥ 20000 nM
Kd (HLA-B*57:01 [4]): ≥ 20 µM
Sequence: EVIPYTPAM

IC50 (HLA-B*58:01 [5]): 136 nM
Sequence: KSLTTTMQF

IC50 (HLA-B*53:01): 4.79 µM
Sequence: YSLEYFQF

Continued, sequence first:

Sequence: SLSSPDSAY
Kd (HLA-B*15:02): 25.1 nM

Sequence: VPAWLPLGI
Kd (HLA-A*01:01): ≥ 20 µM
Kd (HLA-A*03:01): ≥ 20 µM
Kd (HLA-A*26:01): ≥ 20 µM
Kd (HLA-A*30:01 [6]): ≥ 20 µM
Kd (HLA-A*31:01): ≥ 20 µM
Kd (HLA-A*69:01; [13]): 11.1 nM
Kd (HLA-B*07:02; [13]): 732 nM
Kd (HLA-B*15:01; [13]): ≥ 20 µM
Kd (HLA-B*15:17): 288 nM
Kd (HLA-B*18:01): 5.81 µM
Kd (HLA-B*27:05): ≥ 20 µM
Kd (HLA-B*38:01): ≥ 20 µM
Kd (HLA-B*40:01; [13]): ≥ 20 µM
Kd (HLA-B*46:01 [7]): ≥ 20 µM
Kd (HLA-B*48:01): ≥ 20 µM
Kd (HLA-B*57:01 [8]): ≥ 20 µM
Kd (HLA-B*58:01 [9]): ≥ 20 µM
Kd (HLA-A*02:01 [10]): 1050 nM
Kd (HLA-A*11:01): ≥ 20 µM
Kd (HLA-B*39:01): 2680 nM
Kd (HLA-B*51:01; source organism: Orthomarburgvirus marburgense): 116 nM

Sequence: YTFFFTQYF
Kd (HLA-A*24:03 [11]): 28.5 nM
Kd (HLA-C*12:03): 44 nM
Kd (HLA-A*32:07): 34.5 nM
Kd (HLA-A*32:15): 91.1 nM
Kd (HLA-A*68:23): ≤ 0.1 nM
Kd (HLA-B*15:42): ≥ 5 µM
Kd (HLA-B*45:06): ≥ 5 µM
Kd (HLA-B*46:01 [12]): 342 nM
Kd (HLA-B*83:01): ≥ 5 µM
Kd (HLA-C*04:01): ≥ 5 µM
Kd (HLA-C*06:02): 1390 nM
Kd (HLA-C*14:02): 79.4 nM
